Data: article PMC5959871, “Bacterial encapsulins as orthogonal compartments for mammalian cell engineering” (Nature Communications, 2018)

B1: Encapsulin cargo protein D, non-tagged, from the multi-gene construct BCDP2A (natural protein, Myxococcus xanthus, UniProt Q1D9P3 1-109, looked up)
chain: MAKNSNPSAFDRDFGYLMPFLDRVAAAASDLEDASARAELTRLMVEEKARWQRIQELLGGAGGRGAAAPTPAREAPAEAPRLARGSADELHEAAPFATGLTVGSLRGSR
notes: MxEncD, native cargo protein of Myxococcus xanthus encapsulin, expressed from a single reading frame with B and C separated by P2A peptides; P2A skipping probably leaves residues of the P2A peptide on the proteins; also called MxEncD; EncD
B2: Encapsulin cargo protein C, non-tagged, from the multi-gene construct BCDP2A (natural protein, Myxococcus xanthus, UniProt Q1D3Y8 1-130, looked up)
chain: MPQTNPFHSLVPRKMTDTELARSIRLNIEAELDAINLYAAHIDATDNEDAKAILQHVMDEEREHAALFWELIARLDPEQAAHAKEAVEKYRLITSGASHEAVEAVGKEGAAPSPADVTPEKRLTVGSLRR
notes: MxEncC, ferritin-like native cargo protein of Myxococcus xanthus encapsulin, expressed from a single reading frame with B and D separated by P2A peptides; P2A skipping probably leaves residues of the P2A peptide on the proteins; also called MxEncC; EncC
B3: Encapsulin cargo protein B, non-tagged, from the multi-gene construct BCDP2A (natural protein, Myxococcus xanthus, UniProt Q1D6H3 1-158, looked up)
chain: MAGPPDSDLDDVARIRLVLARELETINEYEAYARASSNPEVRAFFQHLAAEEKEHVSEAVHMLRMLDSGQNDHFAKPFVPGHFQAAEAPAPATVHVPTPDGPAFSVNGRNGRLPSEPPTSLPPQRLLYGLPAPPPAVESHPLTVGSLRRGGGGSGSGR
notes: MxEncB, ferritin-like native cargo protein of Myxococcus xanthus encapsulin, expressed from a single reading frame with C and D separated by P2A peptides; P2A skipping probably leaves residues of the P2A peptide on the proteins; also called MxEncB; EncB

Target: T1, MxEncA^FLAG, encapsulin shell protein A from Myxococcus xanthus with C-terminal FLAG tag (Myxococcus xanthus, UniProt Q1D6H4 1-287)
T1 construct: MxEncA, encapsulin shell protein of Myxococcus xanthus, mammalian codon-optimized synthetic gene; A^FLAG printed as 32.9 kDa; Assembles into shells of 60 (T = 1) or 180 (T = 3) subunits; also called nanoshell; source: also purified by anti-FLAG beads and FLAG-peptide elution; not shown: FLAG, C-terminal, kept
Experiment: native gel or EMSA; Blue Native PAGE (NativePAGE 3-12% Bis-Tris) of material eluted from the anti-FLAG Co-IP or the Strep-Tactin purification; Coomassie or silver stain
Conditions: both partners purified

Binding result, binds:
B1
B2
B3
